{"source": "patent US20250352667A1", "binders": {"B1": {"name": "NRF2 isoform 1 (wild-type full-length), FLAG-tagged (protein)", "chain": "MMDLELPPPGLPSQQDMDLIDILWRQDIDLGVSREVFDFSQRRKEYELEKQKKLEKERQEQLQKEQEKAFFAQLQLDEETGEFLPIQPAQHIQSETSGSANYSQVAHIPKSDALYFDDCMQLLAQTFPFVDDNEVSSATFQSLVPDIPGHIESPVFIATNQAQSPETSVAQVAPVDLDGMQQDIEQVWEELLSIPELQCLNIENDKLVETTMVPSPEAKLTEVDNYHFYSSIPSMEKEVGNCSPHFLNAFEDSFSSILSTEDPNQLTVNSLNSDATVNTDFGDEFYSAFIAEPSISNSMPSPATLSHSLSELLNGPIDVSDLSLCKAFNQNHPESTAEFNDSDSGISLNTSPSVASPEHSVESSSYGDTLLGLSDSEVEELDSAPGSVKQNGPKTPVHSSGDMVQPLSPSQGQSTHVHDAQCENTPEKELPVSPGHRKTPFTKDKHSSRLEAHLTRDELRAKALHIPFPVEKIINLPVVDFNEMMSKEQFNEAQLALIRDIRRRGKNKVAAQNCRKRKLENIVELEQDLDHLKDEKEKLLKEKGENDKSLHLLKKQLSTLYLEVFSMLRDEDGKPYSPSEYSLQQTRDGNVFLVPKSKKPDVKKN"}, "B2": {"name": "NRF2 isoform 1 (Q75R full-length), FLAG-tagged (protein)", "chain": "B1 chain with Q75R"}, "B3": {"name": "NRF2 isoform 1 (I86V full-length), FLAG-tagged (protein)", "chain": "B1 chain with I86V"}, "B4": {"name": "NRF2 isoform 1 (I28V full-length), FLAG-tagged (protein)", "chain": "B1 chain with I28V"}}, "key": {"[1]": {"molecular_target": "KEAP1 (wild-type full-length), His-tagged (human) (UniProt Q14145)", "sequence (Q14145 2-624 limits assumed)": "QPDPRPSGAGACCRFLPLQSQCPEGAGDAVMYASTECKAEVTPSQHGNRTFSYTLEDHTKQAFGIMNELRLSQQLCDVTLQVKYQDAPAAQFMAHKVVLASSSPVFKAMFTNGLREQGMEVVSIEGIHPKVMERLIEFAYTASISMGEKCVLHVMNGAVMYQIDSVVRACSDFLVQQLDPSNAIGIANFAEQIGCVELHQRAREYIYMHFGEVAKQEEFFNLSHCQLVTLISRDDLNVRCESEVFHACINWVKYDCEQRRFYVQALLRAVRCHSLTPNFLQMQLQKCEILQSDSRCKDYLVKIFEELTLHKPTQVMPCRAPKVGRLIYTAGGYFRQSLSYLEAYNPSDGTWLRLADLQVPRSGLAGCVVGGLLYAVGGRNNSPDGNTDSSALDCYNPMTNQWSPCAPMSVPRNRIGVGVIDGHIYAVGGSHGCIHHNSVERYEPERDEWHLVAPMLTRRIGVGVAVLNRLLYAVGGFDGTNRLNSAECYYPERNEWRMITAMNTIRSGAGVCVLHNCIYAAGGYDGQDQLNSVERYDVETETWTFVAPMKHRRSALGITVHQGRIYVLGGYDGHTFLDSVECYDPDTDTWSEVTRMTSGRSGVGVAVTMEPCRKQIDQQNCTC", "assay": "AlphaScreen; FLAG-NRF2 wt isoform 1 307.2 nM, His-KEAP1 150 nM; Rep 2; positive control for Q75R"}, "[2]": {"molecular_target": "KEAP1 (wild-type full-length), His-tagged (human) (UniProt Q14145)", "assay": "AlphaScreen; 76.8 nM FLAG-NRF2, 150 nM His-KEAP1; Rep 2; control for I86V"}, "[3]": {"molecular_target": "KEAP1 (wild-type full-length), His-tagged (human) (UniProt Q14145)", "assay": "AlphaScreen; FLAG-NRF2 wt isoform 1 76.8 nM, His-KEAP1 150 nM; Rep 2; positive control for Q75R"}, "[4]": {"molecular_target": "KEAP1 (wild-type full-length), His-tagged (human) (UniProt Q14145)", "assay": "AlphaScreen; 153.6 nM FLAG-NRF2, 150 nM His-KEAP1; signal against NRF2 only; control for I86V"}, "[5]": {"molecular_target": "KEAP1 (wild-type full-length), His-tagged (human) (UniProt Q14145)", "assay": "AlphaScreen; FLAG-NRF2 wt isoform 1 19.2 nM, His-KEAP1 150 nM; Rep 2; positive control for I86V"}, "[6]": {"molecular_target": "KEAP1 (wild-type full-length), His-tagged (human) (UniProt Q14145)", "assay": "AlphaScreen; FLAG-NRF2 wt isoform 1 38.4 nM, His-KEAP1 150 nM; Repeat 1; positive control for Q75R"}, "[7]": {"molecular_target": "KEAP1 (wild-type full-length), His-tagged (human) (UniProt Q14145)", "assay": "AlphaScreen; 614.4 nM FLAG-NRF2, 150 nM His-KEAP1; Rep 2; control for I86V"}, "[8]": {"molecular_target": "KEAP1 (wild-type full-length), His-tagged (human) (UniProt Q14145)", "assay": "AlphaScreen; 19.2 nM FLAG-NRF2, 150 nM His-KEAP1; Rep 2; control for I28V"}, "[9]": {"molecular_target": "KEAP1 (wild-type full-length), His-tagged (human) (UniProt Q14145)", "assay": "AlphaScreen; FLAG-NRF2 wt isoform 1 9.6 nM, His-KEAP1 150 nM; Rep 2; positive control for I86V"}, "[10]": {"molecular_target": "KEAP1 (wild-type full-length), His-tagged (human) (UniProt Q14145)", "assay": "AlphaScreen; FLAG-NRF2 Q75R 19.2 nM, His-KEAP1 150 nM; Rep 1"}, "[11]": {"molecular_target": "KEAP1 (wild-type full-length), His-tagged (human) (UniProt Q14145)", "assay": "AlphaScreen, all variants on one plate; average of three conditions ± standard deviation, KEAP1 150 nM; relative to NRF2 (WT) isoform 1"}, "[12]": {"molecular_target": "KEAP1 (wild-type full-length), His-tagged (human) (UniProt Q14145)", "assay": "AlphaScreen; average ± standard deviation over three NRF2 concentrations, KEAP1 150 nM; relative to wild-type NRF2 isoform 1"}, "[13]": {"molecular_target": "KEAP1 (wild-type full-length), His-tagged (human) (UniProt Q14145)", "assay": "AlphaScreen, all variants on one plate; upper condition (38.4 nM NRF2), KEAP1 150 nM; relative to NRF2 (WT) isoform 1"}, "[14]": {"molecular_target": "KEAP1 (wild-type full-length), His-tagged (human) (UniProt Q14145)", "assay": "AlphaScreen; FLAG-NRF2 Q75R 9.6 nM, His-KEAP1 150 nM; Rep 2"}, "[15]": {"molecular_target": "KEAP1 (wild-type full-length), His-tagged (human) (UniProt Q14145)", "assay": "AlphaScreen, all variants on one plate; optimal condition (19.2 nM NRF2), KEAP1 150 nM; relative to NRF2 (WT) isoform 1"}, "[16]": {"molecular_target": "KEAP1 (wild-type full-length), His-tagged (human) (UniProt Q14145)", "assay": "AlphaScreen, all variants on one plate; lower condition (9.6 nM NRF2), KEAP1 150 nM; relative to NRF2 (WT) isoform 1"}, "[17]": {"molecular_target": "KEAP1 (wild-type full-length), His-tagged (human) (UniProt Q14145)", "assay": "AlphaScreen; FLAG-NRF2 I86V 614.4 nM, His-KEAP1 150 nM; Rep 1"}, "[18]": {"molecular_target": "KEAP1 (wild-type full-length), His-tagged (human) (UniProt Q14145)", "assay": "AlphaScreen; mean over 9.6, 19.2 and 38.4 nM NRF2 I86V, KEAP1 150 nM; relative to wild-type NRF2 isoform 1"}, "[19]": {"molecular_target": "KEAP1 (wild-type full-length), His-tagged (human) (UniProt Q14145)", "assay": "AlphaScreen; FLAG-NRF2 I86V 19.2 nM, His-KEAP1 150 nM; Rep 1"}, "[20]": {"molecular_target": "KEAP1 (wild-type full-length), His-tagged (human) (UniProt Q14145)", "assay": "AlphaScreen; FLAG-NRF2 I86V 2.4 nM, His-KEAP1 150 nM; Rep 3"}, "[21]": {"molecular_target": "KEAP1 (wild-type full-length), His-tagged (human) (UniProt Q14145)", "assay": "AlphaScreen; 19.2 nM FLAG-NRF2, 150 nM His-KEAP1; Rep 2"}, "[22]": {"molecular_target": "KEAP1 (wild-type full-length), His-tagged (human) (UniProt Q14145)", "assay": "AlphaScreen; 38.4 nM FLAG-NRF2, 150 nM His-KEAP1; Repeat 2 (same value as in Table 27)"}, "[23]": {"molecular_target": "KEAP1 (wild-type full-length), His-tagged (human) (UniProt Q14145)", "assay": "AlphaScreen; 1228.8 nM FLAG-NRF2, 150 nM His-KEAP1; Rep 2"}, "[24]": {"molecular_target": "KEAP1 (wild-type full-length), His-tagged (human) (UniProt Q14145)", "assay": "AlphaScreen; standard deviation of three conditions; against wild-type NRF2 isoform 1"}, "[25]": {"molecular_target": "KEAP1 (wild-type full-length), His-tagged (human) (UniProt Q14145)", "assay": "AlphaScreen; 76.8 nM FLAG-NRF2, 150 nM His-KEAP1; Rep 2"}, "[26]": {"molecular_target": "KEAP1 (wild-type full-length), His-tagged (human) (UniProt Q14145)", "assay": "AlphaScreen; 19.2 nM FLAG-NRF2, 150 nM His-KEAP1; Repeat 2 (same value as in Table 27)"}}, "note": "Positions count from the first letter of the chain named. In names and notes the source's numbering stands.", "data": [{"binder": "B1", "values": [{"measurement": "A-counts (NRF2 plus KEAP1)", "setting": "[1]", "result": 1570, "unit": "A-counts"}, {"measurement": "A-counts", "setting": "[2]", "result": 2780, "unit": "A-counts"}, {"measurement": "A-counts (NRF2 plus KEAP1)", "setting": "[3]", "result": 1420, "unit": "A-counts"}, {"measurement": "S/N", "setting": "[4]", "result": 2}, {"measurement": "A-counts (NRF2 plus KEAP1)", "setting": "[5]", "result": 3270, "unit": "A-counts"}, {"measurement": "A-counts (NRF2 plus KEAP1)", "setting": "[6]", "result": 1480, "unit": "A-counts"}, {"measurement": "A-counts", "setting": "[7]", "result": 2520, "unit": "A-counts"}, {"measurement": "A-counts", "setting": "[8]", "result": 2000, "unit": "A-counts"}, {"measurement": "A-counts (NRF2 plus KEAP1)", "setting": "[9]", "result": 2720, "unit": "A-counts"}]}, {"binder": "B2", "values": [{"measurement": "A-counts (NRF2 plus KEAP1)", "setting": "[10]", "result": 1300, "unit": "A-counts"}, {"measurement": "% Disruption in Binding (Reported Values)", "setting": "[11]", "result": 27.5, "unit": "%"}, {"measurement": "Reported Value (reduction in binding)", "setting": "[12]", "result": 30.2, "unit": "%"}, {"measurement": "% Disruption in Binding", "setting": "[13]", "result": 25.1, "unit": "%"}, {"measurement": "A-counts (NRF2 plus KEAP1)", "setting": "[14]", "result": 1090, "unit": "A-counts"}, {"measurement": "% Disruption in Binding", "setting": "[15]", "result": 28.3, "unit": "%"}, {"measurement": "% Disruption in Binding", "setting": "[16]", "result": 29.3, "unit": "%"}]}, {"binder": "B3", "values": [{"measurement": "% Disruption in Binding (Reported Values)", "setting": "[11]", "result": 8.4, "unit": "%"}, {"measurement": "Reported Value (reduction in binding)", "setting": "[12]", "result": 3.2, "unit": "%"}, {"measurement": "A-counts (NRF2 plus KEAP1)", "setting": "[17]", "result": 2000, "unit": "A-counts"}, {"measurement": "% Disruption in Binding", "setting": "[13]", "result": 10.5, "unit": "%"}, {"measurement": "Average Binding", "setting": "[18]", "result": 96.8, "unit": "%"}, {"measurement": "Avg. Reduction in Binding", "setting": "[18]", "result": 3.2, "unit": "%"}, {"measurement": "A-counts (NRF2 plus KEAP1)", "setting": "[19]", "result": 3120, "unit": "A-counts"}, {"measurement": "% Disruption in Binding", "setting": "[15]", "result": 9.2, "unit": "%"}, {"measurement": "% Disruption in Binding", "setting": "[16]", "result": 5.7, "unit": "%"}, {"measurement": "A-counts (NRF2 plus KEAP1)", "setting": "[20]", "result": 1680, "unit": "A-counts"}]}, {"binder": "B4", "values": [{"measurement": "A-counts", "setting": "[21]", "result": 1700, "unit": "A-counts"}, {"measurement": "% Disruption in Binding (Reported Values)", "setting": "[11]", "result": 20.3, "unit": "%"}, {"measurement": "% Disruption in Binding", "setting": "[13]", "result": 21.5, "unit": "%"}, {"measurement": "A-counts", "setting": "[22]", "result": 1680, "unit": "A-counts"}, {"measurement": "A-counts", "setting": "[23]", "result": 1030, "unit": "A-counts"}, {"measurement": "% Disruption in Binding", "setting": "[15]", "result": 22.6, "unit": "%"}, {"measurement": "Reported Value (standard deviation of reduction in binding)", "setting": "[24]", "result": 7.2, "unit": "%"}, {"measurement": "A-counts", "setting": "[25]", "result": 1500, "unit": "A-counts"}, {"measurement": "A-counts", "setting": "[26]", "result": 1700, "unit": "A-counts"}, {"measurement": "% Disruption in Binding", "setting": "[16]", "result": 16.7, "unit": "%"}]}]}
